The source of these data is patent US20260035476A1.

The test addresses CD68 protein (human) (UniProt P34810). Put plainly: flow cytometry on lupus patient PBMC, B cells (FIG. 3B). Background: Flow cytometry measures light scatter and fluorescence of single cells or particles in a stream.
Chain of UniProt P34810 (P34810 22-354): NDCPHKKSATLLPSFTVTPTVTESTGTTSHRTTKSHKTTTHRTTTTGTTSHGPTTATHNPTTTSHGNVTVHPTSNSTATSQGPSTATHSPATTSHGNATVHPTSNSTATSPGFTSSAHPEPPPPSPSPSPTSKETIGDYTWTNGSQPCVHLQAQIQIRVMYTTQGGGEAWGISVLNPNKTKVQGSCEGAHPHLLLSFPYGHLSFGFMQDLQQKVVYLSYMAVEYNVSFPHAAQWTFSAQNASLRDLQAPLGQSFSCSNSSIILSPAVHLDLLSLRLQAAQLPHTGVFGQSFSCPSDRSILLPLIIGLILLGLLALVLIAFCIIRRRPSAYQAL

Substance Y1/82A anti-CD68 monoclonal antibody yielded a percent of B cells co-stained for CD68 and ARID3a of 29%.
